The text below walks through data of the supplement of paper PMC10567573.

B1: CDC25B (parent)
chain: KSPIAPCSLDKRVILIFHCEFSSE
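Also: lentivirally expressed fusions sorted by FACS into six bins by GFP to DsRed ratio, PSI derived from sequencing read proportions per bin multiplied by bin number.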

Variants of B1 are the subject of this series. The series is described as follows: protein stability index of a GFP-peptide fusion (GPS, HEK-293T) (PSI 1-6); higher = more stable. Particulars: c terminus: a fixed tail appended.
KSPIAPCSLDKRWILIFHCEFSSE [V13W]: the protein stability index was found to be 4.17.

KSPIAPCSLDKRLILIFHCEFSSE [V13L]: the protein stability index was determined as 2.5.

As for KSPIAPCSLDKRQILIFHCEFSSE [V13Q], the protein stability index amounted to 1.42.

Consider KSPIAPCSLDKRHILIFHCEFSSE [V13H], for which the protein stability index stood at 1.85.

With KSPIAPCSLDKRIILIFHCEFSSE [V13I], the protein stability index amounted to 3.36.

On to KSPIAPCSLDKRTILIFHCEFSSE [V13T], for which the protein stability index is 2.89.

As for KSPIAPCSLDKRSILIFHCEFSSE [V13S], the protein stability index was 3.15.

Regarding KSPIAPCSLDKRCILIFHCEFSSE [V13C], the protein stability index amounted to 1.21.

For KSPIAPCSLDKRPILIFHCEFSSE [V13P], the protein stability index came to 1.49.

With KSPIAPCSLDKRGILIFHCEFSSE [V13G], the protein stability index is 1.14.

Take KSPIAPCSLDKREILIFHCEFSSE [V13E]: the protein stability index was determined as 1.45.

Turning to KSPIAPCSLDKRDILIFHCEFSSE [V13D], the protein stability index was determined as 2.51.

For the variant KSPIAPCSLDKRFILIFHCEFSSE [V13F], the protein stability index amounted to 2.29.

Turning to KSPIAPCSLDKRRILIFHCEFSSE [V13R], the protein stability index is 3.12.

In the case of KSPIAPCSLDKRNILIFHCEFSSE [V13N], the protein stability index worked out at 1.61.

On to KSPIAPCSLDKRAILIFHCEFSSE [V13A], for which the protein stability index came out at 3.2.

For KSPIAPCSLDKRKILIFHCEFSSE [V13K], the protein stability index is 1.32.

For KSPIAPCSLDKRYILIFHCEFSSE [V13Y], the protein stability index turned out to be 2.97.

Take KSPINPCSLDKRVILIFHCEFSSE [A5N]: the protein stability index was determined as 2.85.

KSPIHPCSLDKRVILIFHCEFSSE [A5H]: the protein stability index is 2.3.

Regarding KSPIYPCSLDKRVILIFHCEFSSE [A5Y], the protein stability index was 3.

As for KSPISPCSLDKRVILIFHCEFSSE [A5S], the protein stability index came out at 2.48.

On to KSPILPCSLDKRVILIFHCEFSSE [A5L], for which the protein stability index turned out to be 2.58.

Regarding KSPIIPCSLDKRVILIFHCEFSSE [A5I], the protein stability index was found to be 2.65.

With KSPIFPCSLDKRVILIFHCEFSSE [A5F], the protein stability index came out at 2.93.

In the case of KSPIQPCSLDKRVILIFHCEFSSE [A5Q], the protein stability index turned out to be 1.42.

Regarding KSPIWPCSLDKRVILIFHCEFSSE [A5W], the protein stability index stood at 2.46.

As to KSPIMPCSLDKRVILIFHCEFSSE [A5M], the protein stability index was determined as 1.72.

Consider KSPIEPCSLDKRVILIFHCEFSSE [A5E], for which the protein stability index worked out at 2.55.

As to KSPITPCSLDKRVILIFHCEFSSE [A5T], the protein stability index is 2.85.

Take KSPIDPCSLDKRVILIFHCEFSSE [A5D]: the protein stability index was found to be 2.57.

For the variant KSPIAQCSLDKRVILIFHCEFSSE [P6Q], the protein stability index is 4.6.

On to KSPIAWCSLDKRVILIFHCEFSSE [P6W], for which the protein stability index worked out at 3.61.

As to KSPIAHCSLDKRVILIFHCEFSSE [P6H], the protein stability index is 2.23.

Take KSPIAVCSLDKRVILIFHCEFSSE [P6V]: the protein stability index stood at 1.39.

Consider KSPIARCSLDKRVILIFHCEFSSE [P6R], for which the protein stability index amounted to 1.89.

In the case of KSPIAFCSLDKRVILIFHCEFSSE [P6F], the protein stability index was determined as 3.05.

For KSPIAGCSLDKRVILIFHCEFSSE [P6G], the protein stability index amounted to 2.54.

With KSPIAYCSLDKRVILIFHCEFSSE [P6Y], the protein stability index amounted to 3.74.

Consider KSPIACCSLDKRVILIFHCEFSSE [P6C], for which the protein stability index amounted to 2.97.

For the variant KSPIAPCSLDHRVILIFHCEFSSE [K11H], the protein stability index amounted to 2.1.

As to KSPIAPCSLDQRVILIFHCEFSSE [K11Q], the protein stability index is 2.16.

As for KSPIAPCSLDLRVILIFHCEFSSE [K11L], the protein stability index was 2.35.

Consider KSPIAPCSLDMRVILIFHCEFSSE [K11M], for which the protein stability index came out at 2.9.

In the case of KSPIAPCSLDCRVILIFHCEFSSE [K11C], the protein stability index was determined as 2.52.

In the case of KSPIAPCSLDVRVILIFHCEFSSE [K11V], the protein stability index amounted to 4.34.

As to KSPIAPCSLDPRVILIFHCEFSSE [K11P], the protein stability index is 3.23.

Consider KSPIAPCSLDYRVILIFHCEFSSE [K11Y], for which the protein stability index came out at 2.32.

On to KSPIAPCSLDFRVILIFHCEFSSE [K11F], for which the protein stability index worked out at 2.69.

Consider KSPIAPCSLDIRVILIFHCEFSSE [K11I], for which the protein stability index amounted to 3.79.

Take KSPIAPCDLDKRVILIFHCEFSSE [S8D]: the protein stability index was 2.31.

As for KSPIAPCALDKRVILIFHCEFSSE [S8A], the protein stability index was 3.52.

For KSPIAPCGLDKRVILIFHCEFSSE [S8G], the protein stability index was 3.16.

For KSPIAPCCLDKRVILIFHCEFSSE [S8C], the protein stability index turned out to be 3.

For KSPIAPCKLDKRVILIFHCEFSSE [S8K], the protein stability index stood at 2.88.

Consider KSPIAPCILDKRVILIFHCEFSSE [S8I], for which the protein stability index was found to be 2.17.

As for KSPIAPCELDKRVILIFHCEFSSE [S8E], the protein stability index was determined as 1.45.

With KSPIAPCFLDKRVILIFHCEFSSE [S8F], the protein stability index is 2.12.

As to KSPIAPCHLDKRVILIFHCEFSSE [S8H], the protein stability index came to 3.03.

As to KSPIAPCMLDKRVILIFHCEFSSE [S8M], the protein stability index was found to be 2.28.

As for KSPIAPCVLDKRVILIFHCEFSSE [S8V], the protein stability index is 2.5.

For KSPIAPCWLDKRVILIFHCEFSSE [S8W], the protein stability index was 1.81.

In the case of KSPIAPCLLDKRVILIFHCEFSSE [S8L], the protein stability index came to 1.

Consider KSPIAPCTLDKRVILIFHCEFSSE [S8T], for which the protein stability index amounted to 4.2.

In the case of KYPIAPCSLDKRVILIFHCEFSSE [S2Y], the protein stability index was found to be 3.15.

For KEPIAPCSLDKRVILIFHCEFSSE [S2E], the protein stability index turned out to be 3.4.

As to KWPIAPCSLDKRVILIFHCEFSSE [S2W], the protein stability index is 4.11.

With KFPIAPCSLDKRVILIFHCEFSSE [S2F], the protein stability index was 3.02.

KDPIAPCSLDKRVILIFHCEFSSE [S2D]: the protein stability index worked out at 3.82.

Regarding KAPIAPCSLDKRVILIFHCEFSSE [S2A], the protein stability index was 2.37.

For the variant KMPIAPCSLDKRVILIFHCEFSSE [S2M], the protein stability index was determined as 1.13.

As to KTPIAPCSLDKRVILIFHCEFSSE [S2T], the protein stability index was 3.22.

With KIPIAPCSLDKRVILIFHCEFSSE [S2I], the protein stability index is 1.68.

For KSPIAPCSFDKRVILIFHCEFSSE [L9F], the protein stability index came to 2.64.

Turning to KSPIAPCSVDKRVILIFHCEFSSE [L9V], the protein stability index came out at 2.37.

As to KSPIAPCSNDKRVILIFHCEFSSE [L9N], the protein stability index amounted to 2.78.

As to KSPIAPCSQDKRVILIFHCEFSSE [L9Q], the protein stability index stood at 2.42.

As to KSPIAPCSWDKRVILIFHCEFSSE [L9W], the protein stability index is 2.9.

In the case of KSPIAPCSRDKRVILIFHCEFSSE [L9R], the protein stability index was determined as 3.58.

Consider KSPIAPCSYDKRVILIFHCEFSSE [L9Y], for which the protein stability index was found to be 3.94.

Regarding KSPIAPCSDDKRVILIFHCEFSSE [L9D], the protein stability index was found to be 2.66.

Consider KSPIAPCSCDKRVILIFHCEFSSE [L9C], for which the protein stability index worked out at 2.46.

Turning to KSPIAPCSIDKRVILIFHCEFSSE [L9I], the protein stability index is 4.08.

Consider KSPIAPCSKDKRVILIFHCEFSSE [L9K], for which the protein stability index worked out at 2.39.

As for KSPIAPCSMDKRVILIFHCEFSSE [L9M], the protein stability index amounted to 2.53.

In the case of KSPIAPCSGDKRVILIFHCEFSSE [L9G], the protein stability index is 2.92.

As for KSPIAPCSADKRVILIFHCEFSSE [L9A], the protein stability index worked out at 2.62.

Regarding KSPIAPCSPDKRVILIFHCEFSSE [L9P], the protein stability index was 3.63.

KSPIAPCSTDKRVILIFHCEFSSE [L9T]: the protein stability index amounted to 2.22.

Turning to KSPIAPCSSDKRVILIFHCEFSSE [L9S], the protein stability index was found to be 2.4.

KSPIAPCSLDKKVILIFHCEFSSE [R12K]: the protein stability index stood at 3.98.

With KSPIAPCSLDKMVILIFHCEFSSE [R12M], the protein stability index was determined as 2.89.

Regarding KSPIAPCSLDKYVILIFHCEFSSE [R12Y], the protein stability index was found to be 3.38.

Regarding KSPIAPCSLDKPVILIFHCEFSSE [R12P], the protein stability index is 2.66.
